The record followed here is patent US20250052767A1 (BIOLEGEND, published 2025).

For assay [1], the target named is T1, human CD28 (human, UniProt P10747 19-220, On cells CD28 is a disulfide linked homodimer and a glycoprotein; one copy of the chain is given.). Description: cell-based or functional assay.
Assay [2] deals with T1, human CD28. Description: cell-based or functional assay. The source holds these as a separate data set.
In assay [3] the target is T1, human CD28. The assay can be described thus: flow cytometry, PE-conjugated antibody on un-fixed human peripheral blood cells. A general note: In flow cytometry, cells or beads pass a laser one at a time.
Protocol: (§1) Cells were left either un-fixed or were fixed with 4% PFA for 15 minutes and washed with PBS to remove PFA. Cells were then counted and adjusted in Cell Staining Buffer and stained with exemplary anti-CD28 antibodies conjugated to PE for 30 minutes in the dark. […] Data were acquired on a BD Canto II instrument, and analyzed by FlowJo.
Assay [4] deals with T1, human CD28. Description: flow cytometry, PE-conjugated antibody on 4% PFA-fixed human peripheral blood cells.
Protocol: as §1
Assay [5] deals with T1, human CD28. Description: flow cytometry, PE-conjugated antibody on fresh human peripheral blood cells, CD3/CD28 gating.
Description: Cells were lysed with RBC lysis buffer, washed, and resuspended in Fluorofix solution (containing 1% PFA). Data were acquired on a BD Canto II instrument, and analyzed by FlowJo. […] A histogram was generated of each cell population to quantify median fluorescence intensity (MFI), and the MFI of each exemplary antibody and respective control was used to calculate the signal to noise (S:N) ratio (Table E2).
Assay [6] addresses T1, human CD28. The assay can be described thus: flow cytometry, Ba/F3-human CD28 cells pre-incubated with 70 ug antibody, then 1 ug biotinylated recombinant CD86 (competitor) + labelled streptavidin.
Protocol: After 15 minutes of incubation and wash, cells were incubated with PE-conjugated streptavidin. Data were acquired on a BD Canto II, and analyzed using FlowJo software.
This value was subtracted from 100 to get a reduction percentage.

Substitutions are numbered along the chain they refer to.

T1 sequence (P10747 19-220 limits assumed): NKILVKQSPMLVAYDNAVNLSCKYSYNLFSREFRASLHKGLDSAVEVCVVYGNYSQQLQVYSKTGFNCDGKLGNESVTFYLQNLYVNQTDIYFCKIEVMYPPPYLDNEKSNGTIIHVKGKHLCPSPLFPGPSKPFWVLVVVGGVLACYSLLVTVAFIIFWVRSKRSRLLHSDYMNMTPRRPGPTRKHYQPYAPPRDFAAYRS

B1: exemplary anti-CD28 antibody AB2 (antibody, V domains shown)
VH: QVQLQQPGSELMRPGASVKLSCKASGYTFTSYWMHWVKQRHGQGLEWIGNIYPGSGRTIYDEKFKSKATLTVDTSSSTAYMHLSSLTSEDSAVFYCTRSHYGSSFDAMDYWGQGTSVTVSS
VL: DIQVNQSPSSLSASLGDTITITCHASQNIYVWLNWYQQKPGNIPKLLIYKASNLHTGVPSRFSGSGSGTGFTLTISSLQPEDIATYYCQQGQSYPWTFGGGTKLEIK
notes: Mouse hybridoma monoclonal antibody; also called antibody 2; clone 2
Turning to B1, in assay [1], the “Division Index (with anti-CD3 UCHT1)” value was 0.99; the “Expansion Index (with anti-CD3 UCHT1)” value worked out at 4.56; the “Percent Divided (CFSE T cell division, with plate-coated anti-CD3 UCHT1)” value was found to be 44%. In assay [2], the “Division Index (no anti-CD3)” value was determined as 1.49; the “Expansion Index (no anti-CD3)” value was determined as 6.13; the “Percent Divided (CFSE T cell division, no anti-CD3)” value stood at 65.4%. In addition, the “S/N on un-fixed cells” value in assay [3] came out at 89. Also, in assay [4], the “S/N on fixed cells” value turned out to be 50.1. Besides, in assay [5], the “% CD28+ population” value came to 64.2%, the “MFI CD28+ population” value was 13100 and the “S/N Ratio” value amounted to 207. For the same molecule, in assay [6], the “% Reduction (of CD86 binding)” value was 91.4% and the “MFI (of CD86 binding after antibody pre-incubation)” value was 714.

B2: exemplary anti-CD28 antibody AB3 (antibody, V domains shown)
VH: KVQLQQSGAGLVKPGASVKLSCKTSGYTFSDYIINWVKQRSGQGLEWIGWFYPGSGSINYNEKFKDKATLTADKSSSTVYMDLSRLTSEDSAVYFCARREDRGGYDAFDYWGQGTTLTVSS
VL: DIQMTQSPASLSVSVGETVTITCRASENIYSNLAWYQQKQGKSPQLLVYAATKLADGVPSRFSGSGSGTQYSLRINSLQSEDFGSYYCQHFWGTPWTFGGGTKLEIK
notes: Mouse hybridoma monoclonal antibody; Conjugated to PE in the staining assays; also called antibody 3; clone 3
B2: in assay [1], the “Division Index (with anti-CD3 UCHT1)” value amounted to 1.08; the “Expansion Index (with anti-CD3 UCHT1)” value was found to be 5.11; the “Percent Divided (CFSE T cell division, with plate-coated anti-CD3 UCHT1)” value turned out to be 55.7%. In addition, in assay [2], the “Division Index (no anti-CD3)” value was found to be 0.0056; the “Expansion Index (no anti-CD3)” value was 1.01; the “Percent Divided (CFSE T cell division, no anti-CD3)” value came to 0.32%. In addition, the “S/N on un-fixed cells” value in assay [3] turned out to be 133. Also, the “S/N on fixed cells” value in assay [4] came out at 101. In addition, in assay [5], the “% CD28+ population” value is 65.7%, the “MFI CD28+ population” value turned out to be 15600 and the “S/N Ratio” value stood at 260. In assay [6], the “% Reduction (of CD86 binding)” value came out at 90.4% and the “MFI (of CD86 binding after antibody pre-incubation)” value is 796.

B3: exemplary anti-CD28 antibody AB1 (antibody, V domains shown)
VH: QVHLQQSATELARPGASVKMSCKASGYTFTSYTMHWVKQRPGQGLEWIGYIDPGSGYSEFNHKFKDKSTLTADKSSSTAYMQLISLTSEDSAVYYCARRQDNSGYDSFDYWGQGTTLTVSS
VL: B2 VL with A25T, K53N, P59S, T69I, R74K, T94I
notes: Mouse hybridoma monoclonal antibody; also called antibody 1; clone 1
On to B3, for which, in assay [1], the “Division Index (with anti-CD3 UCHT1)” value amounted to 0.8; the “Expansion Index (with anti-CD3 UCHT1)” value stood at 4.03; the “Percent Divided (CFSE T cell division, with plate-coated anti-CD3 UCHT1)” value came to 42%. In assay [2], the “Division Index (no anti-CD3)” value amounted to 0.0072; the “Expansion Index (no anti-CD3)” value came to 1.01; the “Percent Divided (CFSE T cell division, no anti-CD3)” value is 0.58%. The “S/N on un-fixed cells” value in assay [3] was found to be 89.2. For the same molecule, the “S/N on fixed cells” value in assay [4] was 61.6. For the same molecule, in assay [5], the “% CD28+ population” value turned out to be 64.8%, the “MFI CD28+ population” value worked out at 12600 and the “S/N Ratio” value was 212. In assay [6], the “% Reduction (of CD86 binding)” value was determined as 91.1% and the “MFI (of CD86 binding after antibody pre-incubation)” value came out at 736.

B4: exemplary anti-CD28 antibody AB6 (antibody, V domains shown)
VH: B2 VH
VL: B2 VL
notes: Mouse hybridoma monoclonal antibody; Conjugated to PE in the staining assays; also called antibody 6; clone 6
Turning to B4, in assay [1], the “Division Index (with anti-CD3 UCHT1)” value is 1.32; the “Expansion Index (with anti-CD3 UCHT1)” value amounted to 6.04; the “Percent Divided (CFSE T cell division, with plate-coated anti-CD3 UCHT1)” value worked out at 65.8%. For the same molecule, in assay [2], the “Division Index (no anti-CD3)” value worked out at 0.0047; the “Expansion Index (no anti-CD3)” value is 1.01; the “Percent Divided (CFSE T cell division, no anti-CD3)” value was determined as 0.33%. In assay [3], the “S/N on un-fixed cells” value amounted to 128. Besides, the “S/N on fixed cells” value in assay [4] was determined as 101. In assay [5], the “% CD28+ population” value came out at 66%, the “MFI CD28+ population” value worked out at 15500 and the “S/N Ratio” value was 249. Further, in assay [6], the “% Reduction (of CD86 binding)” value stood at 91.1% and the “MFI (of CD86 binding after antibody pre-incubation)” value was found to be 741.

B5: exemplary anti-CD28 antibody AB4 (antibody, V domains shown)
VH: EVQLQQSGPELEKPGASVKMSCKASGYSFTDYNMNWVKQSNGKSLEWIGIIDPYYGATTYNQRFKGKATLTVDKSSSTAYMQLKSLTSEDSAVYYCARFGFYGAMDYWGQGISVTVSS
VL: B2 VL
notes: Mouse hybridoma monoclonal antibody; Conjugated to PE in the staining assays; also called antibody 4; clone 4
For B5, in assay [1], the “Division Index (with anti-CD3 UCHT1)” value was found to be 1.08; the “Expansion Index (with anti-CD3 UCHT1)” value is 5.07; the “Percent Divided (CFSE T cell division, with plate-coated anti-CD3 UCHT1)” value is 53.8%. Also, in assay [2], the “Division Index (no anti-CD3)” value came out at 0.0002; the “Expansion Index (no anti-CD3)” value is 1; the “Percent Divided (CFSE T cell division, no anti-CD3)” value came to 0.0091%. The “S/N on un-fixed cells” value in assay [3] amounted to 75.4. In assay [4], the “S/N on fixed cells” value turned out to be 57.7. For the same molecule, in assay [5], the “% CD28+ population” value was determined as 64.9%, the “MFI CD28+ population” value stood at 11900 and the “S/N Ratio” value was found to be 193. Further, in assay [6], the “% Reduction (of CD86 binding)” value came to 92.1% and the “MFI (of CD86 binding after antibody pre-incubation)” value was 657.

B6: exemplary anti-CD28 antibody AB7 (antibody, V domains shown)
VH: B2 VH with T24A
VL: B2 VL with A25T, S80P
notes: Mouse hybridoma monoclonal antibody; Conjugated to PE in the staining assays; also called antibody 7; clone 7
As to B6, in assay [1], the “Division Index (with anti-CD3 UCHT1)” value amounted to 0.96; the “Expansion Index (with anti-CD3 UCHT1)” value worked out at 4.82; the “Percent Divided (CFSE T cell division, with plate-coated anti-CD3 UCHT1)” value came out at 48%. In addition, in assay [2], the “Division Index (no anti-CD3)” value came to 0.014; the “Expansion Index (no anti-CD3)” value came out at 1.03; the “Percent Divided (CFSE T cell division, no anti-CD3)” value turned out to be 0.47%. Also, the “S/N on un-fixed cells” value in assay [3] is 130. Besides, the “S/N on fixed cells” value in assay [4] is 108. In assay [5], the “% CD28+ population” value is 64.8%, the “MFI CD28+ population” value turned out to be 16200 and the “S/N Ratio” value was found to be 249. Moreover, in assay [6], the “% Reduction (of CD86 binding)” value was determined as 88.5% and the “MFI (of CD86 binding after antibody pre-incubation)” value worked out at 955.

B7: exemplary anti-CD28 antibody AB5 (antibody, V domains shown)
VH: B5 VH
VL: DVVVTQTPLSLPVSFGDQVSISCRSSQSLANSFGNTYLSWYLHKPGQSPQLLIYGISNRFSGVPDRFSGSGSGTDFTLKISTIKPEDLGVYYCLQGTHQPFTFGSGTTLELK
notes: Mouse hybridoma monoclonal antibody; Conjugated to PE in the staining assays; also called antibody 5; clone 5
As for B7, in assay [1], the “Division Index (with anti-CD3 UCHT1)” value came out at 1.17; the “Expansion Index (with anti-CD3 UCHT1)” value came out at 5.39; the “Percent Divided (CFSE T cell division, with plate-coated anti-CD3 UCHT1)” value was determined as 60.5%. For the same molecule, in assay [2], the “Division Index (no anti-CD3)” value amounted to 0.0082; the “Expansion Index (no anti-CD3)” value came to 1.01; the “Percent Divided (CFSE T cell division, no anti-CD3)” value was 0.64%. In addition, the “S/N on un-fixed cells” value in assay [3] amounted to 94.5. In assay [4], the “S/N on fixed cells” value is 63.3. Moreover, in assay [5], the “% CD28+ population” value came to 64.7%, the “MFI CD28+ population” value is 12500 and the “S/N Ratio” value was determined as 195. In assay [6], the “% Reduction (of CD86 binding)” value turned out to be 91.9% and the “MFI (of CD86 binding after antibody pre-incubation)” value came out at 668.

B8: exemplary anti-CD28 antibody AB8 (antibody, V domains shown)
VH: EVKLVESGGGLVQPGGSLKLSCAASGFTFSSYTMSWVRQTPEKRLEWVAYISNGGGTTYYPDTVKGRFTISRDNAKNTLYLQMSSLKSEDTAVYYCARHRPYDYDVLDYWGQGTTLTVSS
VL: DIVMTQSQKFMSTSVGDRVSITCKASQIVGTDVAWYQQKPGQSPKILIFSASNRYTGVPDRFTGSGSGTDFTLTISNMQSEDLADYFCHQYSRYPYTFGGGTKLEIK
notes: Mouse hybridoma monoclonal antibody; Conjugated to PE in the staining assays; also called antibody 8; clone 8
As for B8, in assay [1], the “Division Index (with anti-CD3 UCHT1)” value was 0.76; the “Expansion Index (with anti-CD3 UCHT1)” value amounted to 3.51; the “Percent Divided (CFSE T cell division, with plate-coated anti-CD3 UCHT1)” value turned out to be 40%. Besides, in assay [2], the “Division Index (no anti-CD3)” value was 0.62; the “Expansion Index (no anti-CD3)” value stood at 2.85; the “Percent Divided (CFSE T cell division, no anti-CD3)” value stood at 30.7%. The “S/N on un-fixed cells” value in assay [3] came out at 30.9. Moreover, the “S/N on fixed cells” value in assay [4] worked out at 24.6. In assay [5], the “% CD28+ population” value amounted to 65%, the “MFI CD28+ population” value came out at 5210 and the “S/N Ratio” value was 83.2. Moreover, in assay [6], the “% Reduction (of CD86 binding)” value turned out to be 88.8% and the “MFI (of CD86 binding after antibody pre-incubation)” value worked out at 925.
